# Data as given in US20110318339A1 (FABRUS, published 2011).
# Substitutions are numbered along the chain they refer to. In names and notes the source's numbering stands.
# B1: Fab H:APFF NLTH & L6_IGKJ1*01 (Fab, V domains shown)
# VH: QVQLVQSGAEVKKPGASVKVSCKASGYTFTSYYMHWVRQAPGQGLEWMGINLPTGHSTSYAQKFQGRVTMTRDTSTSTVYMELSSLRSEDTAVYYCAREEYAPFSAEYFQFWGQGTLVTVSS
# VL: not shown
# notes: Fab, kappa light chain; also called H:APFF NLTH & L:wt
# B2: Fab H:APFF LTH & L:NDH LS (Fab, V domains shown)
# VH: B1 VH with N51I
# VL: EIVLTQSPATLSLSPGERATLSCRASQNVDHYLAWYQQKPGQAPRLLIYDALNRSTGIPARFSGSGSGTDFTLTISSLEPEDFAVYYCQQRSNWPPWTFGQGTKVEIKR
# notes: Fab, kappa light chain
# B3: Fab H:APFF TLATH & L6_IGKJ1*01 (Fab, V domains shown)
# VH: B1 VH with N51T, P53A
# VL: not shown
# notes: Fab, kappa light chain; also called H:APFF TLATH & L:wt
# B4: Fab H:APFF ELTH & L6_IGKJ1*01 (Fab, V domains shown)
# VH: B1 VH with N51E
# VL: not shown
# notes: Fab, kappa light chain; also called H:APPF ELTH; H:APFF ELTH & L:wt
# B5: Fab H:APFF LTH & L:NDH LG (Fab, V domains shown)
# VH: B1 VH with N51I
# VL: B2 VL with S55G
# notes: Fab, kappa light chain
# B6: Fab H:APFF TV & L6_IGKJ1*01 (Fab, V domains shown)
# VH: B1 VH with N51T, L52V, T54S, H56G
# VL: not shown
# notes: Fab, kappa light chain; also called H:APFF TV & L:wt; APFF I51T/N52V
# B7: Fab VH5-51_IGHD5-18*01>3_IGHJ4*01 G100K/G104T & V3-4_IGLJ1*01 (Fab, V domains shown)
# VH: EVQLVQSGAEVKKPGESLKISCKGSGYSFTSYWIGWVRQMPGKGLEWMGIIYPGDSDTRYSPSFQGQVTISADKSISTAYLQWSSLKASDTAMYYCARRKYSYTYDYFDYWGQGTLVTVSS
# VL: QTVVTQEPSFSVSPGGTVTLTCGLSSGSVSTSYYPSWYQQTPGQAPRTLIYSTNTRSSGVPDRFSGSILGNKAALTITGAQADDESDYYCVLYMGSGISYVFGTGTKVTVL
# notes: Fab made in E. coli: VH on CH1 with His6 and Flag tags (Plasmid A), VL on lambda CL (Plasmid E); also called H: KT & L: wt
# B8: Fab VH5-51_IGHD5-18*01>3_IGHJ4*01 G100K/G104T S28R & V3-4_IGLJ1*01 (Fab, V domains shown)
# VH: B7 VH with S28R
# VL: B7 VL
# notes: Fab made in E. coli: VH on CH1 with His6 and Flag tags (Plasmid A), VL on lambda CL (Plasmid E); also called H: KT S28R & L: wt
# B9: Fab VH5-51_IGHD5-18*01>3_IGHJ4*01 G100K/G104T G24T/S28R/G35V & V3-4_IGLJ1*01 M94R/S96M (Fab, V domains shown)
# VH: B7 VH with G24T, S28R, G35V
# VL: B7 VL with M94R, S96M
# notes: Fab made in E. coli: VH on CH1 with His6 and Flag tags (Plasmid A), VL on lambda CL (Plasmid E); also called H: KT TRV & L: RM; KT TRV-V3-4 RM
# Assays:
# [1] = target: T1, Recombinant Human DLL4 (Cat# 1506-D4/CF, R&D Systems) (human, UniProt Q9NR61 27-529); test: ELISA, DLL4 coated, estimated from dose-dependent binding
# T1 construct: Bought protein; also called rHuman DLL4; hDLL4
# Description: (§1) The plate was blocked by adding 1% BSA in Tris-buffered Saline Tween (TBST) and incubating for 1 hour at room temperature followed by washing 2 times with 150 μl TBST. A Fab antibody was serially diluted in 1% BSA in PBS. A 50 μl aliquot of each serial dilution was added, in triplicate, to each well and the plate was incubated for 1 hour at room temperature followed by washing 2 times with TBST. 50 μl of either goat anti-human kappa HRP conjugated secondary antibody (Cat # A7164-1 mL, Sigma-Aldrich) or goat anti-human lambda HRP conjugated secondary antibody (Cat # L1645-1 ml, Sigma-Aldrich), diluted 1:1000 in 1% BSA in PBS, was added to each well and the plate was incubated for 30 minutes at room temperature followed by washing 3 times with 200 μl TBST. Finally, 50 μl TMB one-component reagent (Cat # TMBW-1000-01, BioFax) was added and allowed to develop for 2 minutes at room temperature. The reaction was immediately halted by the addition of 50 μl 0.5M H₂SO₄ and the absorbance at 450 nm was measured using an ELISA plate reader.
# [2] = target: T1, Recombinant Human DLL4 (Cat# …); test: ELISA, DLL4 coated
# [3] = target: T2, recombinant human DLL4 (Cat# 1506-D4/CF, R&D Systems) (human, UniProt Q9NR61 27-529); test: ELISA, DLL4 coated, Fab 20 nM
# T2 construct: Bought protein; also called hDLL4; rHuman DLL4
# Description: as §1
# [4] = target: T2, recombinant human DLL4 (Cat# …); test: ELISA, DLL4 coated, Fab 25 nM
# Description: as §1
# [5] = target: T2, recombinant human DLL4 (Cat# …); test: ELISA, DLL4 coated, Fab 50 nM
# Description: (§2) In this example, an ELISA binding assay was used to assess the dose-dependent binding of Fab antibodies to recombinant human DLL4 and recombinant mouse DLL4.
# as §1
# [6] = target: T2, recombinant human DLL4 (Cat# …); test: ELISA, DLL4 coated, Fab 100 nM
# Description: as §2, §1
# [7] = target: T2, recombinant human DLL4 (Cat# …); test: ELISA, DLL4 coated, Fab 0.74 nM
# Description: as §1
# [8] = target: T2, recombinant human DLL4 (Cat# …); test: ELISA, DLL4 coated, Fab 2.22 nM
# Description: as §1
# [9] = target: T2, recombinant human DLL4 (Cat# …); test: ELISA, DLL4 coated, Fab 6.67 nM
# Description: as §1
# [10] = target: T2, recombinant human DLL4 (Cat# …); test: ELISA, DLL4 coated, Fab 12.5 nM
# Description: as §2, §1
# [11] = target: T2, recombinant human DLL4 (Cat# …); test: SPR (ProteOn), hDLL4 amine-coupled on chip
# Description: In this example, the binding affinities of selected anti-DLL4 Fabs to recombinant human DLL4 (hDLL4, Cat# 1506-D4/CF, R&D Systems) were analyzed using Surface Plasmon Resonance (SPR) (Biosensor Tools, Salt Lake City, Utah). The Fabs analyzed include germline-derived antibodies and germline-modified DLL4 antibodies. Recombinant hDLL4 was immobilized on a SPR chip using amine coupling at three different surface densities. The Fabs were serially diluted 3-fold, with an initial concentration of 1 μM. Binding studies were run on a ProteOn system using a GLM sensor chip in 10 mM HEPES, pH 7.4, 150 mM NaCl, 0.01% Tween-20, and 0.1 mg/ml BSA at 25° C. The response data from each surface was globally fit to determine the binding constants.
Binder,Kd [1],ELISA absorbance at 450 nm [3],ELISA absorbance at 450 nm [7],ELISA absorbance at 450 nm [8],ELISA absorbance at 450 nm [9],other results
B1,0.001 to 0.01 µM,,,,,
B2,,,,,,fold increased binding affinity against the antibody mutants with heavy chain H:APFF ALTH [2]: ~10 fold
B3,> 0.1 µM,,,,,
B4,0.001 to 0.01 µM,,,,,
B5,,,,,,fold increased binding affinity against the antibody mutants with heavy chain H:APFF ALTH [2]: ~10 fold
B6,0.01 to 0.1 µM,,,,,
B7,,0.018 A450,0.019 A450,0.014 A450,0.042 A450,ELISA absorbance at 450 nm [4]: 0.16 A450; ELISA absorbance at 450 nm [5]: 0.18 A450; ELISA absorbance at 450 nm [6]: 0.18 A450; ELISA absorbance at 450 nm [10]: 0.18 A450
B8,,0.009 A450,0 A450,0 A450,0.003 A450,ELISA absorbance at 450 nm [4]: 0.2 A450; ELISA absorbance at 450 nm [5]: 0.23 A450; ELISA absorbance at 450 nm [6]: 0.26 A450; ELISA absorbance at 450 nm [10]: 0.18 A450; Kd [11]: 0.114 µM; koff [11]: 0.0845 s⁻¹; kon [11]: 740000 M⁻¹ s⁻¹
B9,,0.122 A450,0.006 A450,0.028 A450,0.062 A450,Kd [11]: 0.0403 µM; koff [11]: 0.101 s⁻¹; kon [11]: 2.53e+06 M⁻¹ s⁻¹
